Measurements as given in patent US9493781B2, “Synthetic brassica-derived chloroplast transit peptides” (DOW AGROSCIENCES LLC, priority 2012, dated 2016).

B1: TraP9: chimeric chloroplast transit peptide SEQ ID NO:4; N-terminus from Brassica rapa EPSPS CTP, C-terminus from Brassica napus (protein)
chain: MAQASRICQNPCVISNLPKSNHRKSPFSVSLKTHQPRASSWGLKKSGTMLNGSVIRPVKVTASVS
modifications: TraP9 chimeric chloroplast transit peptide
notes: N-terminus from Brassica rapa EPSPS CTP, C-terminus from Brassica napus
B2: DGT-32: Streptomyces EPSP synthase enzyme (GENBANK ZP_04696613) (protein, listed as Streptomyces roseosporus)
chain: MTVIEIPGSKSVTARALFLAAAADGTTTLLRPLRSDDTEGFAEGLRNLGYAVEQEADRWRVQGRPAGPAATEADVYCRDGATTARFLPTLAAAAASGTYRFDASAQMRRRPLAPLTRALTALGVDLRHEGADGHHPLTVRAAGIEGGELTLDAGESSQYLTALLMLGPLTTKGLRIEVTELVSAPYVEITLAMMRDFGVEVEREGNTFTVPSPSSRLRSNRGGPIGGYRATTYAVEPDASTASYFFAAAALTGREVTVPGLGTGALQGDLRFVDVLREMGAEVSVGPDATTVRSTGRLRGITVNMRDISDTMPTLAAIAPYADGPVVIEDVANTRVKECDRLEACAENLRAMGITVHTGPDRIEIHPGTPKPTGIATHGDHRIVMSFAVAGLRTPGLTYDDPGCVRKTFPRFHEVFADFAHDLEGR
B3: DGT-31 (v1): Streptomyces EPSP synthase enzyme (GENBANK YP_004922608.1) (protein)
chain: MTVIDIPGSKSVTARALFLAAAADGTTTLLRPLHSDDTEGFTEGLTRLGYAVVREPDRWHIEGRPSGPAAADAEVHCRDGATTARFLPTLAAAAASGTYRFDASAQMRRRPLAPLTEALRTLGVDLRHDGAEGHHPLTIQASGVKGGGLTLDAGESSQYLTALLMLGPLTAEGLRIEVTELVSAPYVEITLAMMRGFGVEVVREGNTFTVPPGGYRATTYAIEPDASTASYFFAAAALTGREVTVPGLGTGALQGDLRFTEVLRRMDADVRTTSDSTTVRSDGRLAGLTVNMRDISDTMPTLAAIAPYASSPVRIEDVANTRVKECDRLEACAQNLRSMGITVRTGPDWIEIHPGTPRPTEIATHGDHRIVMSFAVAGLRTPGMSYDDPGCVRKTFPRFHEEFAAFVERSSAGE
modifications: DGT-31 v3 nucleotide
B4: DGT-33: Streptomyces EPSP synthase enzyme (GENBANK NC_010572) (protein, listed as Streptomyces griseus)
chain: MGAVTVIDIPGSKSVTARALFLAAAADGTTTLLRPLRSDDTEGFAEGLKNLGYAVEQEADRWRVEGRPDGPAAPDADVYCRDGATTARFLPTLVAAAASGTYRFDASAQMRRRPLAPLTRALTALGVDLRHGGEEGHHPLTVRAAGIEGGDVVLDAGESSQYLTALLMLGPLTAKGLRIEVTDLVSAPYVEITLAMMRDFGVDVSREGNTFTVPSGGYRATAYAVEPDASTASYFFAAAALTGREVTVPGLGIGALQGDLRFVDVLRDMGAEVSVGPDATTVRSTGRLRGITVTMRDISDTMPTLAAIAPHADGPVRIEDVANTRVKECDRLEACAQNLRAMGITVHTGHDWIEILPGTPKPTGIATHGDHRIVMSFAVAGLLTPGLTYDDPGCVRKTFPRFHEVFADFAASPQA

Key:
[1] = tested on: chloroplasts of tobacco cells; experiment: Tobacco transient assay: confocal microscopy of TraP-YFP localization; type: cell-based, Nicotiana benthamiana; conditions: Agrobacterium-infiltrated tobacco leaves
Description: The Trap8 and TraP9 chimeric chloroplast transit peptide sequences were initially tested via a transient in planta assay. Polynucleotide sequences which encode the Trap8 (SEQ ID NO:5) and TraP9 (SEQ ID NO:6) chimeric chloroplast transit peptide sequences were synthesized. A linker sequence (SEQ ID NO:7) was incorporated between the TraP sequence and the yfp coding sequence. The resulting constructs contained two plant transcription units (PTU). The first PTU was comprised of the Arabidopsis thaliana Ubiquitin 10 promoter (AtUbi10 promoter; Callis, et al., (1990) J. Biol. Chem., 265: 12486-12493), TraP-yellow fluorescent protein fusion gene (TraP-YFP; US Patent App. 2007/0298412), and Agrobacterium tumefaciens ORF 23 3′ untranslated region (AtuORF23 3′UTR; U.S. Pat. No. 5,428,147). […]
Agrobacterium-infiltrated tobacco leaves were severed from the plant, and placed into a petri-dish with water to prevent dehydration. The infiltrated tobacco leaves were observed under blue light excitation with long-pass filter glasses held in place using a Dark Reader Hand Lamp™ (Clare Chemical Research Co.; Dolores, Colo.) to identify undamaged areas of the leaf that were successfully expressing the YFP reporter proteins. […]

YFP protein = experiment: Western blot of infiltrated tobacco leaves (YFP expression, transit peptide processing); parameters: species or system Nicotiana benthamiana; conditions: infiltrated tobacco leaf tissue
Method: Samples of the infiltrated tobacco plants were assayed via Western blotting. Leaf punches were collected and subjected to bead-milling. About 100-200 mg of leaf material was mixed with 2 BBs (steel balls) (Daisy; Rogers, Ark.) and […] of PBST for 3 minutes in a Kleco™ bead mill. The samples were then spun down in a centrifuge at 14,000×g at 4° C. The supernatant was removed and either analyzed directly via Western blot or immunoprecipitated. The immunoprecipitations were performed using the Pierce Direct IP Kit™ (Thermo Scientific; Rockford, Ill.) following the manufacturer's protocol. Approximately, 50 μg of anti-YFP was bound to the resin. The samples were incubated with the resin overnight at 4° C. Next, the samples were washed and eluted the following morning and prepped for analysis by combining equal volumes of 2×8M Urea sample buffer and then boiling the samples for 5 minutes. The boiled samples were run on a 4-12% SDS-Bis Tris gel in MOPS buffer for 40 minutes. The gel was then blotted using the Invitrogen iBlot™ (Life Technologies; Carlsbad, Calif.) following the manufacturer's protocol. The blotted membrane was blocked for 10 minutes using 5% non-fat dry milk in PBS-Tween solution. The membrane was probed with the primary antibody (monoclonal anti-GFP in rabbit) used at a 1:1000 dilution in the 5% non-fat dry milk in PBS-Tween solution for 1 hour. […]

Arabidopsis [2] = experiment: dgt-28, dgt-32, dgt-33, dgt-3, dgt-7 transformed Arabidopsis (T1, T2, T3) response to postemergence glyphosate, % visual injury; type: in vivo, Arabidopsis thaliana; conditions: T1 Arabidopsis
In short: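 Transgenic T1, T2 and T3 Arabidopsis (low-copy events for T2/T3, hemizygous and homozygous in T2) sprayed postemergence with glyphosate at 105, 420, 1,680 or 3,360 g ae/ha. Visual injury scored 2 weeks after treatment as mean, SD and range. Non-transformed Columbia served as sensitive control.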

Arabidopsis [3] = experiment: dgt-31, dgt-32, dgt-33 v1 transformed T1 Arabidopsis response to glyphosate, % visual injury 2 WAT; type: in vivo, Arabidopsis thaliana
Method: Selection of transformed plants. Freshly harvested T1 seed [dgt-31, dgt-32, and dgt-33 v1 gene] were allowed to dry at room temperature and shipped to Indianapolis for testing. T1 seed was sown in 26.5×51-cm germination trays (T.O. Plastics Inc., Clearwater, Minn.), each receiving a 200 mg aliquots of stratified T1 seed (˜10,000 seed) that had previously been suspended in 40 mL of 0.1% agarose solution and stored at 4° C. for 2 days to complete dormancy requirements and ensure synchronous seed germination.
Sunshine Mix LP5 (Sun Gro Horticulture Inc., Bellevue, Wash.) was covered with fine vermiculite and subirrigated with Hoagland's solution until wet, then allowed to gravity drain. Each 40 mL aliquot of stratified seed was sown evenly onto the vermiculite with a pipette and covered with humidity domes (KORD™ Products, Bramalea, Ontario, Canada) for 4-5 days. Domes were removed once plants had germinated prior to initial transformant selection using glufosinate postemergence spray (selecting for the co-transformed dsm-2 gene).
Six days after planting (DAP) and again 10 DAP, T1 plants (cotyledon and 2-4-lf stage, respectively) were sprayed with a 0.1% solution of IGNITE™ herbicide (280 g ai/L glufosinate, Bayer Crop Sciences, Kansas City, Mo.) at a spray volume of 10 mL/tray (703 L/ha) using a DeVilbiss™ compressed air spray tip to deliver an effective rate of 200 g ae/ha glufosinate per application. Survivors (plants actively growing) were identified 4-7 days after the final spraying. Surviving plants were transplanted individually into 3-inch pots prepared with potting media (Metro Mix 360™). Plants reared in the greenhouse at least 1 day prior to tissue sampling for copy number analyses.
T1 plants were sampled and copy number analysis for the dgt-31, dgt-32, and dgt-33 v1 gene were completed. T1 plants were then assigned to various rates of glyphosate so that a range of copies were among each rate. For Arabidopsis, 26.25 g ae/ha glyphosate is an effective dose to distinguish sensitive plants from ones with meaningful levels of resistance. Elevated rates were applied to determine relative levels of resistance (105, 420, 1680, or 3360 g ae/ha).
All glyphosate herbicide applications were made by track sprayer in a 187 L/ha spray volume. Glyphosate used was of the commercial Durango dimethylamine salt formulation (480 g ae/L, Dow AgroSciences, LLC).
T1 plants selected above were subsequently transplanted to individual pots and sprayed with various rates of commercial glyphosate. Table 16 compares the response of dgt-31, dgt-32, and dgt-33 v1 and control genes to impart glyphosate resistance to Arabidopsis T1 transformants. Response is presented in terms of % visual injury 2 WAT. […] An arithmetic mean and standard deviation is presented for each treatment. […]

[4] = with TraP8 and with TraP14 / TraP24 respectively

| Molecule | Glyphosate tolerance (Arabidopsis [2]) | Herbicide tolerance (Arabidopsis [3]; [4]) | also measured |
| --- | --- | --- | --- |
| B1 | – | – | Localization of YFP fluorescence in tobacco leaf cells [1]: accumulated within the chloroplasts; Processing (cleavage) of transit peptide from YFP by Western blot (YFP protein): processed |
| B2 | significant tolerance to glyphosate | robust tolerance to glyphosate | – |
| B3 | – | – | Herbicide tolerance (Arabidopsis [3]; with transit peptide TraP8): improved tolerance; Herbicide tolerance (Arabidopsis [3]; with transit peptide TraP23, compared to the negative control): slight herbicide tolerance |
| B4 | significant tolerance to glyphosate | robust tolerance to glyphosate | – |
